From patent US20110118447A1
Substitutions are numbered along the chain they refer to. Numbers in names are those of the source.

B1: C5A (XPA23) VL Q27D (antibody, V domains shown)
VH: EVQLLESGGGLVQPGGSLRLSCAASGFTFSKYFMFWVRQAPGKGLEWVSVISPSGGMTRYADSVKGRFTISRDNSKNTLYLQMNSLRAEDTAVYYCARVGYGGNSDYWGQGTLVTVSS
VL: DIQMTQSPSSVSASVGDRLTIICRASDDINRWLAWYQQTPGNAPKLLIHSATSLQSGVPSRFSGSGSGTDFTLTINSLQPEDFATYYCQQADSFPLTFGGGTKVEIK
B2: C5A (XPA23) VL Q27E (antibody, V domains shown)
VH: B1 VH
VL: B1 VL with D27E
B3: C5A (XPA23) VL Q27H (antibody, V domains shown)
VH: B1 VH
VL: B1 VL with D27H
B4: C5A (XPA23) VL Q27R (antibody, V domains shown)
VH: B1 VH
VL: B1 VL with D27R
B5: C5A (XPA23) VL Q27S (antibody, V domains shown)
VH: B1 VH
VL: B1 VL with D27S
B6: C5A (XPA23) VL Q27T (antibody, V domains shown)
VH: B1 VH
VL: B1 VL with D27T
B7: C5A (XPA23) VL D28E (antibody, V domains shown)
VH: B1 VH
VL: B1 VL with D27Q, D28E
B8: C5A (XPA23) VL D28K (antibody, V domains shown)
VH: B1 VH
VL: B1 VL with D27Q, D28K
B9: C5A (XPA23) VL D28H (antibody, V domains shown)
VH: B1 VH
VL: B1 VL with D27Q, D28H
B10: C5A (XPA23) VL D28R (antibody, V domains shown)
VH: B1 VH
VL: B1 VL with D27Q, D28R
B11: C5A (XPA23) VL D28S (antibody, V domains shown)
VH: B1 VH
VL: B1 VL with D27Q, D28S
B12: C5A (XPA23) VL D28T (antibody, V domains shown)
VH: B1 VH
VL: B1 VL with D27Q, D28T
B13: C5A (XPA23) VL D28N (antibody, V domains shown)
VH: B1 VH
VL: B1 VL with D27Q, D28N
B14: C5A (XPA23) VL D28Y (antibody, V domains shown)
VH: B1 VH
VL: B1 VL with D27Q, D28Y
B15: C5A (XPA23) VL N30D (antibody, V domains shown)
VH: B1 VH
VL: B1 VL with D27Q, N30D
B16: C5A (XPA23) VL N30E (antibody, V domains shown)
VH: B1 VH
VL: B1 VL with D27Q, N30E
B17: C5A (XPA23) VL N30K (antibody, V domains shown)
VH: B1 VH
VL: B1 VL with D27Q, N30K
B18: C5A (XPA23) VL N30H (antibody, V domains shown)
VH: B1 VH
VL: B1 VL with D27Q, N30H
B19: C5A (XPA23) VL N30R (antibody, V domains shown)
VH: B1 VH
VL: B1 VL with D27Q, N30R
B20: C5A (XPA23) VL N30S (antibody, V domains shown)
VH: B1 VH
VL: B1 VL with D27Q, N30S
B21: C5A (XPA23) VL N30T (antibody, V domains shown)
VH: B1 VH
VL: B1 VL with D27Q, N30T
B22: C5A (XPA23) VL N30Q (antibody, V domains shown)
VH: B1 VH
VL: B1 VL with D27Q, N30Q
B23: C5A (XPA23) VL N30Y (antibody, V domains shown)
VH: B1 VH
VL: B1 VL with D27Q, N30Y
B24: C5A (XPA23) VL R31D (antibody, V domains shown)
VH: B1 VH
VL: B1 VL with D27Q, R31D
B25: C5A (XPA23) VL R31K (antibody, V domains shown)
VH: B1 VH
VL: B1 VL with D27Q, R31K
B26: C5A (XPA23) VL R31S (antibody, V domains shown)
VH: B1 VH
VL: B1 VL with D27Q, R31S
B27: C5A (XPA23) VL R31T (antibody, V domains shown)
VH: B1 VH
VL: B1 VL with D27Q, R31T
B28: C5A (XPA23) VL R31N (antibody, V domains shown)
VH: B1 VH
VL: B1 VL with D27Q, R31N
B29: C5A (XPA23) VL R31Q (antibody, V domains shown)
VH: B1 VH
VL: B1 VL with D27Q, R31Q
B30: C5A (XPA23) VL H49D (antibody, V domains shown)
VH: B1 VH
VL: B1 VL with D27Q, H49D
B31: C5A (XPA23) VL H49K (antibody, V domains shown)
VH: B1 VH
VL: B1 VL with D27Q, H49K
B32: C5A (XPA23) VL H49R (antibody, V domains shown)
VH: B1 VH
VL: B1 VL with D27Q, H49R

biological target: binding partner of C5A (XPA23); assay: Biacore K-off

fold difference in affinity vs original [fold] | Binder
1.07 | B1
1.08 | B2
1.09 | B3
0.89 | B4
3.3 | B5
0.64 | B6
0.74 | B7
0.82 | B8
1.23 | B9
0.94 | B10
5.25 | B11
1.19 | B12
1 | B13
1.45 | B14
0.81 | B15
0.64 | B16

fold difference in affinity vs original [fold] | Binder
0.61 | B17
1 | B18
0.74 | B19
0.72 | B20
0.97 | B21
0.6 | B22
1.4 | B23
11.1 | B24
1.18 | B25
0.44 | B26
0.24 | B27
0.38 | B28
0.27 | B29
0.11 | B30
0.1 | B31
0.21 | B32
